Experimental data as given in US20250340659A1 (PETMEDIX, published 2025).

T1: canine OX40L, full length membrane form, expressed on HEK293 cells (canine)
T1 chain: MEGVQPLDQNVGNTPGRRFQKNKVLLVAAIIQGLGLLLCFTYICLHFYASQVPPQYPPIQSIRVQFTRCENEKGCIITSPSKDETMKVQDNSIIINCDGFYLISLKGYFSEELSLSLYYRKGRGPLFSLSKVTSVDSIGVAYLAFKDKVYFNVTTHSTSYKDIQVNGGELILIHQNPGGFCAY

T2: recombinant canine OX40L ECD-TNCc-HIS protein (canine)
T2 construct: also called Trimeric OX40L probe (HIS tag); trimeric canine OX40L
T2 chain: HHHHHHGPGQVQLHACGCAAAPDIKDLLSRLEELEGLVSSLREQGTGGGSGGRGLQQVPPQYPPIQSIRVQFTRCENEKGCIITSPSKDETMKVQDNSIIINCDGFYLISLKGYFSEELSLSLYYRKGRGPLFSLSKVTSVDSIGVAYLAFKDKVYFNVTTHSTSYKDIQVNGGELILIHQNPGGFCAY


Columns and labels:
[1] = molecular target: T1, canine OX40L, full length membrane …; test: cell-based or functional assay
[2] = molecular target: T2, recombinant canine OX40L ECD-TNCc-HIS …; test: SPR KD1, bivalent analyte model
Method: (§1) Affinity (Kd) of OX40L antibodies is measured by SPR, using a recombinant canine OX40L ECD-TNCc-HIS protein (Seq ID 811) as the capturing agent (FIG. 5B).
(§2) Functional affinity is determined using a Biakore 8K (Cytiva). in brief, purified OX40L ECD-TNCc-HIS protein is covalently bound at low density to the surface of a CM5 sensor chip (Cytiva) by amine coupling, using the manufacturer's recommended protocol. Candidate antibodies are subsequently passed across the chip surface at a range of concentrations and affinity determined using the dedicated software (Biacore Insight Evaluation Software). Curves were fitted using a bivalent analyte binding model.

[3] = molecular target: T2, recombinant canine OX40L ECD-TNCc-HIS …; test: SPR Koff (kd1)
Method: as §1, §2

[4] = molecular target: T2, recombinant canine OX40L ECD-TNCc-HIS …; test: SPR Koff (kd2)
Method: as §1, §2

[5] = molecular target: T1, canine OX40L, full length membrane …; test: flow cytometry, OX40L HEK minus WT HEK
Method: (§3) CHO supernatants diluted in FACS buffer (PBS containing 3% FBS) at 1, 5 or 10 μg/ml were used to screen for their binding capacity to canine OX40L using a cell-based assay. In brief, HEK293 or MEF cells (or any other commonly used cell lines) expressing canine OX40L at the cell surface are incubated with 100 μll of FACS buffer containing the candidate antibody for 30′ on ice. Cells are washed with 150 μl FACS buffer followed by centrifugation at 300 g for 3 min. The cell pellet is resuspended in FACS buffer containing a 1:1000 dilution of a fluorescently labelled secondary antibody recognising the canine Fc region of the test antibody for 30 min in the dark, followed by washing with 150 μl FACS buffer. Cells are resuspended in FACS buffer and flow cytometry performed using either a […] cytometer, followed by data analysis using FlowJo (FIG. 6 and Table 4).

[6] = molecular target: T1, canine OX40L, full length membrane …; test: flow cytometry
Method: as §3

Binder	% Signal Inhibition Average [1] [%]	% Signal Inhibition Rep1 [1] [%]	% Signal Inhibition Rep2 [1] [%]	% Signal Inhibition Rep3 [1] [%]	Kd [2] [nM]	koff [3] [s⁻¹]	koff [4] [s⁻¹]	GEO mean difference [5]	GEO mean OX40L expressing HEK [6]
PMX025 (antibody, V domains shown, also called PMX25) VH: EVHLVESGGDLVKPGGSLRLSCVASGFTFSSYHMSWVRQAPGKGLQWVAFINAGEISTNYADAVKGRFTISRDNAKNILYLQMNSLRAEDTAVYYCASGHIWIRPFDYWGQGTLVTVSS VL: SYVLTQLPSMSVTLRQTARITCEGDSIGRKRVNWYQQKLGQVPVLIIYDDDSRPSGIPERFSGANSGNTATLTISGALAEDEAEYYCQVWDSSNNWVFGEGTQLTVL	72.6	87.9	61.7	68.3	195	0.0129	0.00169	2.81e+06	2.83e+06
PMX027 (antibody, V domains shown, also called PMX27) VH: EVHLVESGGDLVKPGGSLRLSCVASGFTFSTYHMSWVRQAPGKGLQWVAFINAGEISTNYADAVKGRFTISRDNAKNIFYLQMNSLRAEDTAVYYCATGHIWIRPFDYWGQGTLVTVSS VL: SYVLTQLPSMSVTLRQTARITCEGNSIGRKRVNWYQQKLGQVPVLIIYDDDSRPSGIPERFSGANSGNTATLTISGALAEDEAEYYCQVWDSSNNWVFGEGTQLTVL	80.4	72.2	83.5	85.5	316	0.0161	0.000505	1.62e+06	1.65e+06
PMX098 (antibody, V domains shown) VH: EVQLVESGGDLVKPGGSLRLSCVASGFTFNTYHMNWVRQAPGKGLHWVAFINSGGSGTSYADTVKGRFTISRDYAKNTLYLQMNSLRAEDTAVYYCASGSIWTHFDYWGQGTLVTVSS VL: SYVLTQLPSVSLTLRQTAHITCGGDIIGSKSVYWYQQKLGQAPVLIIYRDNNRPTGIPERFSGASSGNTATLTISGALAEDEADYYCQVWDSSTQAMFGGGTHLTVL	45	40.4	55	39.8	14.1	0.00147	1.03	–	–
PMX097 (antibody, V domains shown, also called PMX97) VH: EVQLVESGGDLVRPGGSLRLSCVASGITFSSYHMSWVRQAPGKGLQWVALINSGGSSITYADVVRGRFTISRDYAKNTLYLQMNSLRAEDTAVYYCASGSIWTHFDYWGQGTRVTVSS VL: SFVLTQLPSVSVTLRQTARITCGGDIIGSKNVYWYQQRLGQAPVLIIYRDSNRPTGIPERFSGASSGNTATLTISGALAEDEADYYCQVWDNSNKAMFGGGTHLTVL	60.8	56.1	73.1	53.2	0.492	7.16e-05	0.744	–	–
PMX104 (antibody, V domains shown) VH: EVQLVESGGDLVRPGGSLRLSCVASGFTFSNYHMSWVRQAPGKGLQWVAFINSGGTSTTYADAVRGRFTTSRDYAKNTLYLQMNSLRAEDTAVYYCTSGSIWTHFDYWGQGTLVTVSS VL: SFVLTQLPSVSVTLRQTARITCGGDIIGSKSVYWFQQKLGQAPILIIYRDDNRPTGIPERFSGASSGNTATLIISGALAEDEAHYYCQVWDSSSKAMFGGGTHLTVL	31	31	28.1	33.9	17.6	0.00174	1.23	–	–
PMX110 (antibody, V domains shown) VH: EVQLVESGGDLVRPGGSLRLSCVASGFTFSSYHMSWVRQAPGKGLQWVAFINSGGSSTTYADVVRGRFTISRDYAKNTLYLQMNSLRAEDTAVYYCASGSILTHFDYWGQGTLVTVSS VL: SFVLTQLPSVSVTLRQTARITCGGDSVGSKSVYWYQQKLGQAPVLIIYRDSNRPTGIPERFSGASSGNTATLTISGALAEDEADYYCQVWDNSNKAMFGGGTHLTVL	37.4	55.2	43.1	13.7	–	–	–	28400	31900
PMX107 (antibody, V domains shown) VH: AVQLVESGGDLVRPGGSLRLSCVASGFTFSSYHMNWVRQAPGKGLQWVAFINSGGSSTTYADVVRGRFTISRDYAKNTLFLQMNSLRAEDTAVYYCAIVSIWTHFDYWGQGTLVTVSS VL: SFVLTQLPSVSVTLRQTARITCGGDIIGSKNVYWYQQRLGQAPVLILYRDTNRPTGIPERFSGASSGNTATLTISGALAEDEADYYCQVWDNSNKAMFGGGTHLTVL	-5.31	7.14	20.9	-44	–	–	–	55200	58800
PMX108 (antibody, V domains shown) VH: EVQLVESGGDLVRPGGSLRLSCVASGFTFTNYHMSWVRQAPGKGLQWVAFINSGGSSTTYTDVVRGRFTISRDYAKNTLYLQMNSLTAEDTAVYYCASGAIWTHFDHWGQGTLVTVSS VL: SFVLTQLPSVSVTLRQTARITCGGDSVGSKSVYWYQQKLGQAPVLIIYRDSNRPTGIPERFSGASSGNTATLTISGALAEDEADYYCQVWDNSNKAIFGGGTHLTVL	82.2	95.6	89.8	61.3	–	–	–	607000	611000
PMX109 (antibody, V domains shown) VH: EVQLVESGGDLVRPGGSLRLSCVASGFTFTNYHMSWVRQAPGKGLQWVAFINSGGSSTTYTDVVRGRFTISRDYAKNTLYLQMNSLTAEDTAVYYCASGSIWTHFDHWGQGTLVTVSS VL: SFVLTQLPSVSVTLRQTARITCGGDSVGSKSVYWYQQKLGQAPVLIIYRDSNRPTGIPERFSGASSGNTATLTISGALAEDEADYYCQVWDNSNKAIFGGGTHLTVL	53.3	67.9	69.5	22.5	–	–	–	629000	633000
PMX111 (antibody, V domains shown) VH: EVQLVESGGDLVRPGGSLRLSCVASGFTFSSYHMNWVRQAPGKGLQWVAFINSGASSATYADVVRGRFTISRDYAKNTLYLQMNSLRAEDTAVYYCASGSIWTHFDFWGQGTLVTVSS VL: SFVLTQLPSVSVTLRQTARITCGGDSVGSKSVYWYQQKLGQAPVLIIYRDSNRPTGIPERFSGASSGNTATLTISGALAEDEADYYCQVWDNSNKAMFGGGTHLTVL	38.9	44.2	37.4	35.2	–	–	–	643000	647000
PMX291 (antibody, V domains shown) VH: EVQLVESGGDLLKPGGSLRLSCVASGFPFRNYDMTWVRQAPGKGLQWVAAIHYDGSNTYYTDAVKGRFTISRDNARNTVFLQMNSLRAEDTAVYYCAKKFNNYRPFDYWGQGTLVTVSS VL: DIVMTQTPPSLSVSPRETPSISCKASQSLLRSDGNTYLEWYLQKPGQSPQLLIYLVSNRFTGVSDRFSGSGSGTDFTLRISRVEANDAGVYYCGQGTQLPWTFGAGTKVELK	73.3	95.9	70.3	53.6	–	–	–	459000	463000
PMX292 (antibody, V domains shown) VH: AVQLVESGGDLVRPGGSLRLSCVASGFTFSNFDMYWVRQAPGRGLQWVATISYDGFNTYSTDTVRGRFTISRDNARNTVYLQMNSLRVEDTAVFYCTARRFGLGYWGQGTLVTVSS VL: DIFMAQTPPSLSVSPRETASISCKASQSLLHSDGNTYLDWYLQKPGQSPQLLIYLVSNRFPGVSDRFSGSGSGTGFTLRISRVEASDTGVYYCGQGTQLPYTFSQGTKLEIK	71.6	97.5	54.4	62.9	–	–	–	467000	471000
